Reference: patent US20210338848A1, “COMPOSITIONS AND METHODS FOR DIAGNOSING AND TREATING MACROPHAGE-RELATED DISORDERS USING CARBOHYDRATE-BASED MACR[…]” (Cardinal Health 414, LLC, priority 2016, published 2021)

Experiments:
mannose receptor CD206 = mannose receptor CD206 (Homo sapiens, UniProt P22897); conditions: when administered to mammals; no other receptors bind or transduce
Text: CD206 is a C-type […] binding protein found on the surface of macrophages.

[1] = used to stage breast cancer and melanoma; cited from earlier work

Sequence of mannose receptor CD206 (P22897 19-1456): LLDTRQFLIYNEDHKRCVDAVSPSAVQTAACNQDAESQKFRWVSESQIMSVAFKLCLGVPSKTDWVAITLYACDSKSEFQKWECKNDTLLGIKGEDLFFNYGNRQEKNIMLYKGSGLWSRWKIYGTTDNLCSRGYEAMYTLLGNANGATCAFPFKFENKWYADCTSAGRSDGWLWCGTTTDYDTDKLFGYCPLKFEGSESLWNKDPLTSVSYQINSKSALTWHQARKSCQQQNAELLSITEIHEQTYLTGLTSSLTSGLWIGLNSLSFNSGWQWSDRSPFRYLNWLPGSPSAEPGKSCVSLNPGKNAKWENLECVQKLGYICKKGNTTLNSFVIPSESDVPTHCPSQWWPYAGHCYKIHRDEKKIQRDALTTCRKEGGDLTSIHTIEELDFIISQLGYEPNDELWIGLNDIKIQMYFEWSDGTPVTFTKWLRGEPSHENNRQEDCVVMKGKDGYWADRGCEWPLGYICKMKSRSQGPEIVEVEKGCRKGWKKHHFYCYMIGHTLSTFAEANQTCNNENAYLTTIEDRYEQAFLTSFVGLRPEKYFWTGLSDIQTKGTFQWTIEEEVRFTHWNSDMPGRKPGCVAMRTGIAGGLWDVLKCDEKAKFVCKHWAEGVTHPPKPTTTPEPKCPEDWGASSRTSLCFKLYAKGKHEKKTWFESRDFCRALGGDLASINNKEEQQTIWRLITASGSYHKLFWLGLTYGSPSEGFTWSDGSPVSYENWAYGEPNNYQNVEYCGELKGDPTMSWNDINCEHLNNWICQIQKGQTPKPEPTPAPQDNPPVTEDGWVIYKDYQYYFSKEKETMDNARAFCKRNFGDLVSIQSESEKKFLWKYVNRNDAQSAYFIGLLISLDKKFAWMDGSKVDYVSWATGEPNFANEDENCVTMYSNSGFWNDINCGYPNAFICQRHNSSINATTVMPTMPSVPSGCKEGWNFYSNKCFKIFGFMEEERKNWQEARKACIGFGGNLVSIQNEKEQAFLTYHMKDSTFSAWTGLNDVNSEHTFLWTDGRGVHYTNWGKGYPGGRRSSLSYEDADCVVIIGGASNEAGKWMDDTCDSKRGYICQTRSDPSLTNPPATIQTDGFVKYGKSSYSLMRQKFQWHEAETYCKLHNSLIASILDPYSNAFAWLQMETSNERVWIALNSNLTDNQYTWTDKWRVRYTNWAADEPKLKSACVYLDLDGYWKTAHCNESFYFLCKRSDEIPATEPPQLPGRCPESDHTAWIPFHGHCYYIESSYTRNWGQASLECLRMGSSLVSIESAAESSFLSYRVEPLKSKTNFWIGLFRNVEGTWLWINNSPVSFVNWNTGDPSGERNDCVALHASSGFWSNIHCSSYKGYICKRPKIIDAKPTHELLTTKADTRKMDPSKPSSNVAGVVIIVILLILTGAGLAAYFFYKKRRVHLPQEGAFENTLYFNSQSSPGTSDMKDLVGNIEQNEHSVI

Substance	receptor binding specificity (mannose receptor CD206)	clearance from injection site [1]	uptake by distal or second-echelon lymph nodes [1]	uptake by sentinel lymph node(s) [1]
dextran 3-[(2-aminoethyl)thio]propyl 17-carboxy-10,13,16-tris(carboxymethyl)-8-oxo-4-thia-7,10,13,16-tetraazaheptadec-1-yl 3-[[2-[[1-imino-2-(D-mannopyranosylthio) ethyl]amino]ethyl]thio]propyl ether complexes [tilmanocept]	bind exclusively to the mannose receptor CD206	–	–	–
technetium Tc 99m, dextran 3-[(2-aminoethyl)thio]propyl 17-carboxy-10,13,16-tris(carboxymethyl)-8-oxo-4-thia-7,10,13,16-tetraazaheptadec-1-yl 3-[[2-[[1-imino-2-(D-mannopyranosylthio) ethyl]amino]ethyl]thio]propyl ether complexes [technetium Tc 99m labeled tilmanocept]	–	rapid clearance from an injection site	low uptake by distal or second-echelon lymph nodes	rapid and sustained uptake by the sentinel lymph node(s)
